B1: SZ1-RGG (other)
chain: HHHHHHMNLVAQLENEVASLENENETLKKKNLHKKDLIAYLEKEIANLRKKIEEESNQSNNGGSGNAALNRGGRYVPPHLRGGDGGAAAAASAGGDDRRGGAGGGGYRRGGGNSGGGGGGGYDRGYNDNRDDRDNRGGSGGYGRDRNYEDRGYNGGGGGGGNRGYNNNRGGGGGGYNRQDRGDGGSSNFSRGGYNNRDEGSDNRGSGRSYNNDRRDNGGDG
notes: Purified from E. coli; also called single RGG domain tagged with SZ1
B2: (RGG)3 condensates that lack the interaction tag (other)
chain: ESNQSNNGGSGNAALNRGGRYVPPHLRGGDGGAAAAASAGGDDRRGGAGGGGYRRGGGNSGGGGGGGYDRGYNDNRDDRDNRGGSGGYGRDRNYEDRGYNGGGGGGGNRGYNNNRGGGGGGYNRQDRGDGGSSNFSRGGYNNRDEGSDNRGSGRSYNNDRRDNGGDGESNQSNNGGSGNAALNRGGRYVPPHLRGGDGGAAAAASAGGDDRRGGAGGGGYRRGGGNSGGGGGGGYDRGYNDNRDDRDNRGGSGGYGRDRNYEDRGYNGGGGGGGNRGYNNNRGGGGGGYNRQDRGDGGSSNFSRGGYNNRDEGSDNRGSGRSYNNDRRDNGGDGESNQSNNGGSGNAALNRGGRYVPPHLRGGDGGAAAAASAGGDDRRGGAGGGGYRRGGGNSGGGGGGGYDRGYNDNRDDRDNRGGSGGYGRDRNYEDRGYNGGGGGGGNRGYNNNRGGGGGGYNRQDRGDGGSSNFSRGGYNNRDEGSDNRGSGRSYNNDRRDNGGDG
notes: Control scaffold without coiled-coil tag; The other scaffolds carry GFP; also called control scaffolds that lack the cognate coiled-coil tag
B3: Cdc24-mScarlet-TsCC(B) (other, not shown: large carriers)
chain: MAIQTRFASGTSLSDLKPKPSATSISIPMQNVMNKPVTEQDSLFHICANIRKRLEVLPQLKPFLQLAYQSSEVLSERQSLLLSQKQHQELLKSNGANRDSSDLAPTLRSSSISTATSLMSMEGISYTNSNPSATPNMEDTLLTFSMGILPITMDCDPVTQLSQLFQQGAPLCILFNSVKPQFKLPVIASDDLKVCKKSIYDFILGCKKHFAFNDEELFTISDVFANSTSQLVKVLEVVETLMNSSPTIFPSKSKTQQIMNAENQHRHQPQQSSKKHNEYVKIIKEFVATERKYVHDLEILDKYRQQLLDSNLITSEELYMLFPNLGDAIDFQRRFLISLEINALVEPSKQRIGALFMHSKHFFKLYEPWSIGQNAAIEFLSSTLHKMRVDESQRFIINNKLELQSFLYKPVQRLCRYPLLVKELLAESSDDNNTKELEAALDISKNIARSINENQRRTENHQVVKKLYGRVVNWKGYRISKFGELLYFDKVFISTTNSSSEPEREFEVYLFEKIIILFSEVVTKKSASSLILKKKSSTSASISASNITDNNGSPHHSYHKRHSNSSSSNNIHLSSSSAAAIIHSSTNSSDNNSNNSSSSSLFKLSANEPKLDLRGRIMIMNLNQIIPQNNRSLNITWESIKEQGNFLLKFKNEETRDNWSSCLQQLIHDLKNEQFKARHHSSTSTTSSTAKSSSMMSPTTTMNTPNHHNSRQTHDSMASFSSSHMKRVSDVLPKRRTTSSSFESEIKSISENFKNSIPESSILFRISYNNNSNNTSSSEIFTLLVEKVWNFDDLIMAINSKISNTHNNNISPITKIKYQDEDGDFVVLGSDEDWNVAKEMLAENNEKFLNIRLYVEVAEEVKAVSAALSERITQLATELNDKAVRAAERRVAEVTRAAGEQTAQAERELADAAQTVDDLEEKLVELQDRYDSLTLALESERSLRQQHDVEMAQLKERLAAAEENTRQEEERYQEQKTVLQDALNAEQAQHKNTREDLQKRLEQISVEANARTEELKSERDKVNTFLTRLESQENALASEEQQHLATRETLQQRLEQAIADTQARAGEIALERDRVSSLTARLESQEKASSEQLVRMGSEIASLTERCTQLENQRDDARLETMGEKETVAALRGEAEALKRQNQSLMAALSGNKQTGGQNA

In one experiment the target is T1, RGG-SZ2 (Caenorhabditis elegans).
T1 construct: Purified from E. coli; also called single RGG domain tagged with SZ2
T1 chain: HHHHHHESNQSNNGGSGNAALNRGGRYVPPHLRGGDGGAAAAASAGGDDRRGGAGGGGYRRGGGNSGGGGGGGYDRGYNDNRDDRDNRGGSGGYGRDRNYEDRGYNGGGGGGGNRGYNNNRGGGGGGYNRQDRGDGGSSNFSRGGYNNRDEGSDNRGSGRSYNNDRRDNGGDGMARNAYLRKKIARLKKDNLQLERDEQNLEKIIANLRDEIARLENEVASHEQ
Briefly: fluorescence microscopy of purified proteins, 4 µM.

The target of the experiment “Cdc24-mScarlet-TsCC(B)” is B3. Put plainly: fluorescence microscopy of client localization in yeast.
The target of experiment [1] is TsCC(A)-(RGG)3-GFP scaffold (Caenorhabditis elegans). Briefly: cell-based or functional assay.

As for B1, the binding result with RGG-SZ2 is listed as “binds”.
For B2, in the experiment with Cdc24-mScarlet-TsCC(B), the binding result is given as “no binding”.
Take B3: the “fold decrease in rate of cell proliferation in liquid culture” value in experiment [1] was roughly 12 fold.

Values taken from US20250115886A1 (University of Pennsylvania, published 2025).
